Among the data in article PMC3662962 are Km and Vmax values, retold here.

The term Km denotes the substrate concentration at which the rate is half of its maximum. The Vmax is the rate approached at saturating substrate.

Substrate in the data set: O=[N+]([O-])c1ccc(OP(=O)(O)O)cc1
The experiment in a line: purified protein. The settings on record: pH 8.0; 37.0 °C.

B1: Rv1364c (Mycobacterium tuberculosis H37Rv) (protein)
chain: MAAEMDWDKTVGAAEDVRRIFEHIPAILVGLEGPDHRFVAVNAAYRGFSPLLDTVGQPAREVYPELEGQQIYEMLDRVYQTGEPQSGSEWRLQTDYDGSGVEERYFDFVVTPRRRADGSIEGVQLIVDDVTSRVRARQAAEARVEELSERYRNVRDSATVMQQALLAASVPVVPGADIAAEYLVAAEDTAAGGDWFDALALGDRLVLVVGDVVGHGVEAAAVMSQLRTALRMQISAGYTVVEALEAVDRFHKQVPGSKSATMCVGSLDFTSGEFQYCTAGHPPPLLVTADASARYVEPTGAGPLGSGTGFPVRSEVLNIGDAILFYTDGLIERPGRPLEASTAEFADLAASIASGSGGFVLDAPARPIDRLCSDTLELLLRSTGYNDDVTLLAMQRRAPTPPLHITLDATINAARTVRAQLREWLAEIGADHSDIADIVHAISEFVENAVEHGYATDVSKGIVVAAALAGDGNVRASVIDRGQWKDHRDGARGRGRGLAMAEALVSEARIMHGAGGTTATLTHRLSRPARFVTDTMVRRAAFQQTIDSEFVSLVESGRIVVRGDVDSTTAATLDRQIAVESRSGIAPVTIDLSAVTHLGSAGVGALAAACDRARKQGTECVLVAPPGSPAHHVLSLVQLPVVGADTEDIFAQE
For B1, the Km came to 3.61 ± 0.58 mM and the Vmax turned out to be 0.09 µmol/min/mg.
